{"source": "patent US20190307899A1", "about": "“JUNCTOPHILIN-2 FRAGMENTS AND USES THEREFOR” (University of Lowa Research Foundation, published 2019)", "key": {"[1]": {"molecular_target": "T1, JP2(1-565) truncation with N-terminal FLAG tag (plasmid construct of FIG. 4)", "T1 chain": "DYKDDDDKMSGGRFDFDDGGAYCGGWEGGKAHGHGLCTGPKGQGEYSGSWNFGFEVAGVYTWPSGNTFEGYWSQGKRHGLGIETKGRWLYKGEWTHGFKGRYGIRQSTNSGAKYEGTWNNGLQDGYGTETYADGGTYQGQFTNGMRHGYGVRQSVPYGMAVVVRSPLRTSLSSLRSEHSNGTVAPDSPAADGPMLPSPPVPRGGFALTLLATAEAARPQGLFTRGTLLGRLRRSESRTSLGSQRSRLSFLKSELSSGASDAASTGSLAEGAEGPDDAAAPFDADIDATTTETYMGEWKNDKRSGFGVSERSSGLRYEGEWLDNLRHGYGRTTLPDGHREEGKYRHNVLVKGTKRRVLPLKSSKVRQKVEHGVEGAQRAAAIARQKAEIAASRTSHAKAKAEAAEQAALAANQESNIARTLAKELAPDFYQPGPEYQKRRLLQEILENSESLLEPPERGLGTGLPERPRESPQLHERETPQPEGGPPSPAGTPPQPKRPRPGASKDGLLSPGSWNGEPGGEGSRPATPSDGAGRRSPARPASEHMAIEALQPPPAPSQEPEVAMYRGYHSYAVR"}, "[2]": {"molecular_target": "T2, full-length JP2 Δ(153-158) with N-terminal FLAG and C-terminal HA tags", "T2 chain": "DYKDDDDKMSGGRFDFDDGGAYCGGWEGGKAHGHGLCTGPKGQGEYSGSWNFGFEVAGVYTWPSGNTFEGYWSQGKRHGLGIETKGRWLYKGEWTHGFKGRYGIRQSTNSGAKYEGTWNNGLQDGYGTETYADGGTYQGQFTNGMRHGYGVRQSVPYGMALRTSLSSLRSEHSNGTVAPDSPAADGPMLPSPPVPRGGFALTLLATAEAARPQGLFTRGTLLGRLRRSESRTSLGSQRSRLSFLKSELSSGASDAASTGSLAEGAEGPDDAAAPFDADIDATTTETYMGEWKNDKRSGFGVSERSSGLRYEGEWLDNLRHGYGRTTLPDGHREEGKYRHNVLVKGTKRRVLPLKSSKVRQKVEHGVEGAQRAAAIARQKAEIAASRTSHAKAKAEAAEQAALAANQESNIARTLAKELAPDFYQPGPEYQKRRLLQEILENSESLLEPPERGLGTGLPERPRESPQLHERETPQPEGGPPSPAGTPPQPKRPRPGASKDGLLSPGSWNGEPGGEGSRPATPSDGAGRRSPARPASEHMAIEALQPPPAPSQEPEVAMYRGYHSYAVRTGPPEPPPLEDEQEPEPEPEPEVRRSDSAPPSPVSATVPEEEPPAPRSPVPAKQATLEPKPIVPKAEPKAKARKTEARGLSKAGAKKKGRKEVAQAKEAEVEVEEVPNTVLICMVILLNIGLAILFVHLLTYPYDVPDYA"}, "[3]": {"molecular_target": "T3, full-length JP2 Δ(198-205) with N-terminal FLAG and C-terminal HA tags", "T3 chain": "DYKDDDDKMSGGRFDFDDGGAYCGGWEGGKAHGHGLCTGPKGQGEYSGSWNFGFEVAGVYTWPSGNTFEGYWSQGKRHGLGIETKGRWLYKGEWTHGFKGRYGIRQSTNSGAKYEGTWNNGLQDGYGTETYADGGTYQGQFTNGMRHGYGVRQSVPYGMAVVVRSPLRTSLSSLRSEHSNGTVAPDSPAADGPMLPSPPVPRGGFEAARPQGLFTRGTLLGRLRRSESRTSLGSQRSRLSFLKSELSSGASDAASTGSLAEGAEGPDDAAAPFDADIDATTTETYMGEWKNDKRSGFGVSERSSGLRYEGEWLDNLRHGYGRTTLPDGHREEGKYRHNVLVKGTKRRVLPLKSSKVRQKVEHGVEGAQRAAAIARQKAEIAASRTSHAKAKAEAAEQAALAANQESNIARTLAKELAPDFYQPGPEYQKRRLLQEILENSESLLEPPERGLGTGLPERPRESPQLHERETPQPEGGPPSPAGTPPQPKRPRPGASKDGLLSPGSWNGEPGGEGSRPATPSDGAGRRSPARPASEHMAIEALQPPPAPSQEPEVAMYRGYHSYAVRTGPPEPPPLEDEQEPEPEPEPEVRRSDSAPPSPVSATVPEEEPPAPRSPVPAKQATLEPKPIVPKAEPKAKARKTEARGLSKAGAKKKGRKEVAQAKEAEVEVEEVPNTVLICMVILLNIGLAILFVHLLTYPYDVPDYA"}, "[4]": {"molecular_target": "T4, full-length JP2 Δ(563-568) with N-terminal FLAG and C-terminal HA tags", "T4 chain": "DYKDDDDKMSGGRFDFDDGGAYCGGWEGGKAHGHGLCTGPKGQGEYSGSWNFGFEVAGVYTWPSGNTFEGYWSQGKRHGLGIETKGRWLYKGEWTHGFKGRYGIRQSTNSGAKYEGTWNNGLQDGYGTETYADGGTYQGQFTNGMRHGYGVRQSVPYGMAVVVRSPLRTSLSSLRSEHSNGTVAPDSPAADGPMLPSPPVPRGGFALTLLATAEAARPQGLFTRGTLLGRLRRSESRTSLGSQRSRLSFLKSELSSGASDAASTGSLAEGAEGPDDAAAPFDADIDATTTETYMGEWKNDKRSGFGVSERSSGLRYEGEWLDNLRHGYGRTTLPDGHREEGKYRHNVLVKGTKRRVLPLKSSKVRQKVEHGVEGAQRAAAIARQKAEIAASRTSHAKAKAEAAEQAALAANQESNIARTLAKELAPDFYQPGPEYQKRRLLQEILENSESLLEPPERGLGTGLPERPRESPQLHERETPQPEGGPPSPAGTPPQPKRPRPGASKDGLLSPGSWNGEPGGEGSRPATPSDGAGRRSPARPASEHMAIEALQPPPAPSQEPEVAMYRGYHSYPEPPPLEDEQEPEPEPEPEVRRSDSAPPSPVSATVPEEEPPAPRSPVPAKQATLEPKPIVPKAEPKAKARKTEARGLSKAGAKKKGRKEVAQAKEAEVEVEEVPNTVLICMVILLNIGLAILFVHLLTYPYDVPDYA"}, "[5]": {"molecular_target": "T5, junctophilin-2 (JP2), human, in human heart lysates, Q9BR39", "T5 chain": "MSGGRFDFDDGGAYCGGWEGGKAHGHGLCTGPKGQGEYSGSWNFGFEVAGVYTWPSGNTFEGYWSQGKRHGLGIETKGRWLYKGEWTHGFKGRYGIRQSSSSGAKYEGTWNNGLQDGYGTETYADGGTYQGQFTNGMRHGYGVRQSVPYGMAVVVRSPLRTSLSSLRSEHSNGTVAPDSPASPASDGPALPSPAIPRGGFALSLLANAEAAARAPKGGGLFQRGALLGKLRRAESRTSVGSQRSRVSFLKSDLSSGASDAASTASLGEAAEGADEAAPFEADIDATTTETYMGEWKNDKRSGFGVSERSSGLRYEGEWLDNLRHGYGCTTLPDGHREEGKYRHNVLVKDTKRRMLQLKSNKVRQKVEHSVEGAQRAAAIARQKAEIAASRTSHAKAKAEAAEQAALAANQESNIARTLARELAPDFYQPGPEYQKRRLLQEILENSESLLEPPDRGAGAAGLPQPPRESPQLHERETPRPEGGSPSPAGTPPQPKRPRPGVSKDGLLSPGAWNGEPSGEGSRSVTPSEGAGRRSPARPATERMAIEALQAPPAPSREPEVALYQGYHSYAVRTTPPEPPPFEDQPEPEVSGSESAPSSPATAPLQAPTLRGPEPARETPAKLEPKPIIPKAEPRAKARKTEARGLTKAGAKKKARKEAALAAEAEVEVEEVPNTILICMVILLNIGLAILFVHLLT"}, "[6]": {"molecular_target": "T6, junctophilin-2 (JP2), murine, full length, untagged", "T6 chain": "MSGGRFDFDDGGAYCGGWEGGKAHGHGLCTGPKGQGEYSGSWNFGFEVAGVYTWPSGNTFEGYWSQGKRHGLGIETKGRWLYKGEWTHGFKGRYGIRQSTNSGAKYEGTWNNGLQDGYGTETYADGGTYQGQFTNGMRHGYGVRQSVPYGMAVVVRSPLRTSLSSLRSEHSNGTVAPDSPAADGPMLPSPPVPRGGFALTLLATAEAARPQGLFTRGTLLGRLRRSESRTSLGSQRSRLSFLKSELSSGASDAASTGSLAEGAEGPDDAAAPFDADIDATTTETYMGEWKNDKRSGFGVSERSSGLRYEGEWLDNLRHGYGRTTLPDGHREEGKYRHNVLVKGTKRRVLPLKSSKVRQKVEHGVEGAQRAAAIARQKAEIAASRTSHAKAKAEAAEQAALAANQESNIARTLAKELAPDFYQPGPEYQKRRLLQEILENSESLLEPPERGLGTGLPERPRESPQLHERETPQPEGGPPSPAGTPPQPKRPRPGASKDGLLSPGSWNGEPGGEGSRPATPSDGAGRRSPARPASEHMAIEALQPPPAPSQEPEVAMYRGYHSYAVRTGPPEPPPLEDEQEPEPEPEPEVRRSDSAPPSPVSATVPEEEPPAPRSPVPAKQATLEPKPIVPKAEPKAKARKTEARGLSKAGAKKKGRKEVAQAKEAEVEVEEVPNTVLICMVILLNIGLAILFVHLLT"}, "[7]": {"molecular_target": "GST-JP2NT (junctophilin-2 residues 1-565) (Mus musculus, UniProt Q9ET78 SEQ:1-565)", "experiment": "EMSA", "conditions": "tags: GST"}, "[8]": {"molecular_target": "T7, type 2 ryanodine receptor (mouse, UniProt E9Q401 1-4966, limits assumed)", "T7 construct": "Endogenous prey of the co-immunoprecipitation; also called RyR2", "experiment": "co-immunoprecipitation with anti-HA, Western blot"}, "[9]": {"molecular_target": "T8, Cav1.2 (voltage-gated L-type Ca2+ channel) (mouse, UniProt Q01815 1-2139)", "T8 construct": "Endogenous prey of the co-immunoprecipitation", "T8 sequence (Q01815 whole entry)": "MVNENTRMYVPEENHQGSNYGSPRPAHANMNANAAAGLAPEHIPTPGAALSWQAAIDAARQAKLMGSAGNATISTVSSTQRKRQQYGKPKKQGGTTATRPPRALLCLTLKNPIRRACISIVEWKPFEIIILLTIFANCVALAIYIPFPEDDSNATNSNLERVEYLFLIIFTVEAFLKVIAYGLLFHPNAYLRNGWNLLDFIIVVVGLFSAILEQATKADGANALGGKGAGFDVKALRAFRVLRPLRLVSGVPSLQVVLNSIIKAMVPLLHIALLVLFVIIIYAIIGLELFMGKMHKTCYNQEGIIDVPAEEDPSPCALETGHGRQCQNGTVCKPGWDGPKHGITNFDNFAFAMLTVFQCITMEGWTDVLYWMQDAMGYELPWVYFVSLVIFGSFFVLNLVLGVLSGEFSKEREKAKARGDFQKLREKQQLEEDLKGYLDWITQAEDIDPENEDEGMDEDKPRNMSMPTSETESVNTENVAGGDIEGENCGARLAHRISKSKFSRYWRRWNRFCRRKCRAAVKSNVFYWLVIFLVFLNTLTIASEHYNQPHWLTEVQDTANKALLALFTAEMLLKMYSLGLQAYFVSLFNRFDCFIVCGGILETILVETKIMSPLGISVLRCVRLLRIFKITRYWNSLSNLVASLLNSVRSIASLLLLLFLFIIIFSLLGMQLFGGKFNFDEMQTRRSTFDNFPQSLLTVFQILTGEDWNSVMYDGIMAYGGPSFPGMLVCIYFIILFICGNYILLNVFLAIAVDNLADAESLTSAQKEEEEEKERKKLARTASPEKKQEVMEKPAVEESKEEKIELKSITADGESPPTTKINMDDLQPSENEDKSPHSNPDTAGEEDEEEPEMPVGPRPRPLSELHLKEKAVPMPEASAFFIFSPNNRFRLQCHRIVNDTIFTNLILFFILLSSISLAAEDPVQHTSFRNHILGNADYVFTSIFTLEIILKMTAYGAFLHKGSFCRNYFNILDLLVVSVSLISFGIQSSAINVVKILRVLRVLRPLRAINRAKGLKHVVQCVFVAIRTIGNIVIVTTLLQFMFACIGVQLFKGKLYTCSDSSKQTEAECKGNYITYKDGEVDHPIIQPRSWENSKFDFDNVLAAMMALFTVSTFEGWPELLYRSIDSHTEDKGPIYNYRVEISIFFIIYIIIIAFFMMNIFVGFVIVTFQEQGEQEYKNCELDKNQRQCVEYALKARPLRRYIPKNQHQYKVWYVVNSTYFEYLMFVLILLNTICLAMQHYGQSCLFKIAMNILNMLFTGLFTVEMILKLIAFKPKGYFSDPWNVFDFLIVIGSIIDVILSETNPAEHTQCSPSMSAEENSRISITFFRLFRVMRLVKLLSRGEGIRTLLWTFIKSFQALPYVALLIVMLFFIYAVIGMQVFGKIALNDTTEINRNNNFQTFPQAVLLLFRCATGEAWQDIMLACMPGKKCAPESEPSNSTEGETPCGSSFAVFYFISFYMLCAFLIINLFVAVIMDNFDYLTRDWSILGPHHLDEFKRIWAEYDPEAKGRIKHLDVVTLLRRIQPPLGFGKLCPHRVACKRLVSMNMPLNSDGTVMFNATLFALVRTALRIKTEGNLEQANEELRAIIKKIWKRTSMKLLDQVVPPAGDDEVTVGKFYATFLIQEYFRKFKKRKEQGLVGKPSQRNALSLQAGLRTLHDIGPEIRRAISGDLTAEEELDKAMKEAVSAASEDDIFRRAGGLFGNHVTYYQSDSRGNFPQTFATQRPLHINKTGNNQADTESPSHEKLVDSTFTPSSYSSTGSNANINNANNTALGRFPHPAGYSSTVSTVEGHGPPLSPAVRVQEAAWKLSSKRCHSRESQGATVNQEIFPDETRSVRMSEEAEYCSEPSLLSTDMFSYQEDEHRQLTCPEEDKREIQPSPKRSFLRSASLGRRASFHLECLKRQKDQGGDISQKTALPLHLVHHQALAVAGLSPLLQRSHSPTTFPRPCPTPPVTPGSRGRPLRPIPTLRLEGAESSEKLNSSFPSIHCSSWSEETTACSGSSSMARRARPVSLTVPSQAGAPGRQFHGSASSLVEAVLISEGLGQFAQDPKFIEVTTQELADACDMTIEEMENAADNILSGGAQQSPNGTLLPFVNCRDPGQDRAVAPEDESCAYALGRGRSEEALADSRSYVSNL", "experiment": "co-immunoprecipitation with anti-HA, Western blot"}}}
{"binder": "purified human calpain I (protein) SEEIITPVYCTGVSAQVQKQRARELGLGRHENAIKYLGQDYEQLRVRCLQSGTLFRDEAFPPVPQSLGYKDLGPNSSKTYGIKWKRPTELLSNPQFIVDGATRTDICQGALGDCWLLAAIASLTLNDTLLHRVVPHGQSFQNGYAGIFHFQLWQFGEWVDVVVDDLLPIKDGKLVFVHSAEGNEFWSALLEKAYAKVNGSYEALSGGSTSEGFEDFTGGVTEWYELRKAPSDLYQIILKALERGSLLGCSIDISSVLDMEAITFKKLVKGHAYSVTGAKQVNYRGQVVSLIRMRNPWGEVEWTGAWSDSSSEWNNVDPYERDQLRVKMEDGEFWMSFRDFMREFTRLEICNLTPDALKSRTIRKWNTTLYEGTWRRGSTAGGCRNYPATFWVNPQFKIRLDETDDPDDYGDRESGCSFVLALMQKHRRRERRFGRDMETIGFAVYEVPPELVGQPAVHLKRDFFLANASRARSEQFINLREVSTRFRLPPGEYVVVPSTFEPNKEGDFVLRFFSEKSAGTVELDDQIQANLPDEQVLSEEEIDENFKALFRQLAGEDMEISVKELRTILNRIISKHKDLRTKGFSLESCRSMVNLMDRDGNGKLGLVEFNILWNRIRNYLSIFRKFDLDKSGSMSAYEMRMAIESAGFKLNKKLYELIITRYSEPDLAVDFDNFVCCLVRLETMFRFFKTLDTDLDGVVTFDLFKWLQLTMFA", "values": [{"measurement": "in vitro calpain cleavage, Western blot with anti-FLAG", "setting": "[1]", "result": "this fragment can be further processed by calpain to generate N-I, N-II, and N-III fragments"}, {"measurement": "in vitro calpain cleavage assay, Western blot", "setting": "[2]", "result": "completely abolished the generation of N-I in the in vitro calpain cleavage assay"}, {"measurement": "in vitro calpain cleavage assay, Western blot", "setting": "[3]", "result": "resulted in complete loss of the JP2 cleavage product N-II but had no effect on the generation of N-I"}, {"measurement": "in vitro calpain cleavage assay, Western blot", "setting": "[4]", "result": "led to complete loss of N-IV (FIG. 4D, d) and a severe reduction in C-I"}, {"measurement": "in vitro calpain cleavage of human heart lysates, Western blot of JP2", "setting": "[5]", "result": "time-dependent and Ca^2+/calpain-dependent JP2 down-regulation"}, {"measurement": "in vitro calpain cleavage of WT mouse heart lysates, Western blot of full-length JP2", "setting": "[6]", "result": "significant reduction in full-length JP2 upon addition of calpain I"}]}
{"binder": "TATA box variant TATAAT (dsDNA, [22]) DNA 1: GGGATCTGAGTCGCAGTATAATAGAAGCTTTTCGGGCGTT DNA 2: AACGCCCGAAAAGCTTCTATTATACTGCGACTCAGATCCC", "values": [{"measurement": "binding result", "setting": "[7]", "result": "binds"}]}
{"binder": "JP2(566-end)-HA (other, also called JP(566-end); Ad-JP2(566-end)) TGPPEPPPLEDEQEPEPEPEPEVRRSDSAPPSPVSATVPEEEPPAPRSPVPAKQATLEPKPIVPKAEPKAKARKTEARGLSKAGAKKKGRKEVAQAKEAEVEVEEVPNTVLICMVILLNIGLAILFVHLLTYPYDVPDYA", "values": [{"measurement": "binding result", "setting": "[8]", "result": "no binding"}, {"measurement": "binding result", "setting": "[9]", "result": "no binding"}]}
